The chains are these.
T1: AnkG ANK repeats (residues 38-855, R1-24) (UniProt O70511 38-855)
T1 chain: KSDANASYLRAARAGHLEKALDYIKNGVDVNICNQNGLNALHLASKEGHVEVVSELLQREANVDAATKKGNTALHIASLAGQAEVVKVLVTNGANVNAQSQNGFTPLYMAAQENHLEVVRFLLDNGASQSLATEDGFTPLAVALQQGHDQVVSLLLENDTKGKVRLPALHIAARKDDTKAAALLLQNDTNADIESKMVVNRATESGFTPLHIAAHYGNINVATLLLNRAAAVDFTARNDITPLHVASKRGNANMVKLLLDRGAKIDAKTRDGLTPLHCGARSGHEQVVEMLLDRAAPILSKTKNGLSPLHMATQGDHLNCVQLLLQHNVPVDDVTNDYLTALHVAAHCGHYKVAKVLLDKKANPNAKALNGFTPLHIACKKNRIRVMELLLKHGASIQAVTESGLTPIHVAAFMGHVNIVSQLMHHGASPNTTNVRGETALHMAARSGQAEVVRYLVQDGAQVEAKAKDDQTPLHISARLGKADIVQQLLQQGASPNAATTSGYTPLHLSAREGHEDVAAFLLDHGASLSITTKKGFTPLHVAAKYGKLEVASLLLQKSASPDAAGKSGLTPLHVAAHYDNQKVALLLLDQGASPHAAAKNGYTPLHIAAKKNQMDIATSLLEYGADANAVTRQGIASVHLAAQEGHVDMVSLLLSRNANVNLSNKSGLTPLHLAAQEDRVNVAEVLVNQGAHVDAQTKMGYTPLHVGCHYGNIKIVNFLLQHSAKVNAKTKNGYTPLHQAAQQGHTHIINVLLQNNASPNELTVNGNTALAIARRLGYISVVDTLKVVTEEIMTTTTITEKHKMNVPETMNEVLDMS

T2: AnkG ANK repeats (residues 38-855, R1-24) (UniProt O70511 38-855)
T2 construct: Ankyrin-G (AnkG), ANK repeats R1-24, residues 38-855; In human Q12955 the same residues seem to stand 8 lower (I277 here = I269 there); Cloned into a modified pET32a vector; the tag is said to be removed only for the crystallisation proteins; also called AnkG R1-24; Ankyrin-G ankyrin repeats; source: E. coli BL21 (DE3), purified (Ni-NTA, size-exclusion chromatography)
T2 sequence (looked up): T1 chain

B1: full-length Nfasc cytoplasmic tail (residues 1132-1240) (domain or fragment)
chain: KRSRGGKYPVREKKDVPLGPEDPKEEDGSFDYSDEDNKPLQGSQTSLDGTIKQQESDDSLVDYGEGGEGQFNEDGSFIGQYTVRKDKEETEGNESSEATSPVNAIYSLA
B2: Nfasc 1198 to 1214 E1204A (domain or fragment, UniProt P97685 1198-1214, looked up)
chain: GEGQFNADGSFIGQYTV
notes: source: E. coli BL21 (DE3), purified (Ni-NTA, size-exclusion chromatography)
B3: Nfasc 1198 to 1214 Y1212E (domain or fragment, UniProt P97685 1198-1214, looked up)
chain: GEGQFNEDGSFIGQETV
notes: also called Y1212E phosphorylation mimic variant; source: E. coli BL21 (DE3), purified (Ni-NTA, size-exclusion chromatography)
B4: Nfasc 1198 to 1214 F1202Q (domain or fragment, UniProt P97685 1198-1214, looked up)
chain: GEGQQNEDGSFIGQYTV
notes: as for B2
B5: NrCAM (domain or fragment)
chain: RRNKGGKYPVKEKEDAHADPEIQPMKEDDGTFGEYSDAEDHKPLKKGSRTPSDRTVKKEDSDDSLVDYGEGVNGQFNEDGSFIGQYSGKKEKEPAEGNESSEAPSPVNAMNSFV
B6: CHL1 (domain or fragment)
chain: IEIPSSVQQVPTIIKQSKVQVAFPFDEYFQIECEAKGNPEPTFSWTKDGNPFYFTDHRIIPSNNSGTFRIPNEGHISHFQGKYRCFASNKLGIAMSEEIEFIVPSVPKFPKEKIDPLEVEEGDPIVLPCNPPKGLPPLHIYWMNIELEHIEQDERVYMSQKGDLYFANVEEKDSRNDYCCFAAFPRLRTIVQKMPMKLTVNSSNSIKQRKPKLLLPPTESGSESSITILKGEILLLECFAEGLPTPQVDWNKIGGDLPKGRETKENYGKTLKIENVSYQDKGNYRCTASNFLGTATHDFHVIVEEPPRWTKKPQSAVYSTGSNGILLCEAEGEPQPTIKWRVNGSPVDNHPFAGDVVFPREISFTNLQPNHTAVYQCEASNVHGTILANANIDVVDVRPLIQTKDGENYATVVGYSAFLHCEFFASPEAVVSWQKVEEVKPLEGRRYHIYENGTLQINRTTEEDAGSYSCWVENAIGKTAVTANLDIRNATKLRVSPKNPRIPKLHMLELHCESKCDSHLKHSLKLSWSKDGEAFEINGTEDGRIIIDGANLTISNVTLEDQGIYCCSAHTALDSAADITQVTVLDVPDPPENLHLSERQNRSVRLTWEAGADHNSNISEYIVEFEGNKEEPGRWEELTRVQGKKTTVILPLAPFVRYQFRVIAVNEVGRSQPSQPSDHHETPPAAPDRNPQNIRVQASQPKEMIIKWEPLKSMEQNGPGLEYRVTWKPQGAPVEWEEETVTNHTLRVMTPAVYAPYDVKVQAINQLGSGPDPQSVTLYSGEDYPDTAPVIHGVDVINSTLVKVTWSTVPKDRVHGRLKGYQINWWKTKSLLDGRTHPKEVNILRFSGQRNSGMVPSLDAFSEFHLTVLAYNSKGAGPESEPYIFQTPEGVPEQPTFLKVIKVDKDTATLSWGLPKKLNGNLTGYLLQYQIINDTYEIGELNDINITTPSKPSWHLSNLNATTKYKFYLRACTSQGCGKPITEESSTLGEGSKGIGKISGVNLTQKTHPIEVFEPGAEHIVRLMTKNWGDNDSIFQDVIETRGREYAGLYDDISTQGWFIGLMCAIALLTLLLLTVCFVKRNRGGKYSVKEKEDLHPDPEIQSVKDETFGEYSDSDEKPLKGSLRSLNRDMQPTESADSLVEYGEGDHGLFSEDGSFIGAYAGSKEKGSVESNGSSTATFPLRA

In one test the target is T1, AnkG ANK repeats (residues 38-855, …). The test can be described thus: ITC.
Settings: not given
By Kd is commonly meant the free concentration of one partner at which half of the binding sites on the other are occupied at equilibrium, for simple one-to-one binding. Molecule GEGQFNEDGSFIGQYTV (domain or fragment) [Nfasc 1198 to 1214 WT] showed an equilibrium dissociation constant (Kd) of 340 nM.

B1 registered a dissociation constant (Kd) of 930 nM. Compared with the last molecule, the Kd is about 2.7-fold higher.

For another test the target is unchanged. The test can be described thus: ITC.
Settings: not given
This is another data set of the same source.
Consider GEGQFNEDGSFQGQYTV (domain or fragment) [Nfasc 1198 to 1214 I1209Q], for which the Kd was 1000 nM.

GEGQFAEDGSFIGQYTV [Nfasc 1198-1214 N1203A] registered a Kd of 260 nM.

Turning to GEGQFNEKGSFIGQYTV (domain or fragment) [Nfasc 1198 to 1214 D1205K], the equilibrium dissociation constant (Kd) was 7700 nM.

With GEGQFNEDGSFIGQYAV [Nfasc 1198-1214 T1213A], binding was put at a Kd of 460 nM.

On to B2, for which the affinity, expressed as Kd, was 9200 nM.

Consider B3, for which the Kd came to 3200 nM.

B4 gave an equilibrium dissociation constant (Kd) of 7100 nM. This Kd is about 2.2-fold higher than that of the molecule before.

For the molecule GEGQFNEDGSQIGQYTV (domain or fragment) [Nfasc 1198 to 1214 F1208Q], the Kd came out at 1400 nM.

Take GEGQFNEAGSFIGQYTV (domain or fragment) [Nfasc 1198 to 1214 D1205A]: the Kd is 1300 nM.

For the molecule GEGQFNEDGAFIGQYTV [Nfasc 1198-1214 S1207A], binding was put at a Kd of 1200 nM.

For a further test, the target named is T2, AnkG ANK repeats (residues 38-855, …). The test can be described thus: ITC; VP-ITC at 25 °C; 50 mM Tris, 100 mM NaCl, 1 mM EDTA, 1 mM DTT, pH 7.8; Nfasc proteins (200 μM) in the syringe, AnkG proteins (20 μM) in the cell; one-site binding model. Particulars: both partners purified. A general note: ITC needs no label: the signal is the heat of the interaction.
As for B2, the “fold decrease in binding affinity against Nfasc 1198 to 1214 WT” value was approximately 27 fold.

B3: the “fold decrease in binding against Nfasc 1198 to 1214 WT” value was approximately 9 fold.

Consider B4, for which the “fold decrease in binding against Nfasc 1198 to 1214 WT” value was more than 20 fold.

The next test has as its target T1, AnkG ANK repeats (residues 38-855, …). Description: ITC.
Settings: not given
The source holds these as a separate data set.
As to B5, binding was characterised by a dissociation constant (Kd) of 700 nM. This counts as sub-micromolar.

In turn, B6 came in with a Kd of 900 nM.

Molecule SDDSLADYGGSVDVQFNEDGSFIGQYSG (domain or fragment) [L1CAM (construct of the ITC assay)] returned a Kd of 1100 nM.

Source of the values: paper PMC9396398, “Crystal structure of Ankyrin-G in complex with a fragment of Neurofascin reveals binding mechanisms required for integrity of the axon initial segment” (The Journal of Biological Chemistry, 2022).
